The text below walks through data of US9060970B2, “Bridge-helix cap: target and method for inhibition of bacterial RNA polymerase” (priority 2011, dated 2015).

Converted amounts (≈) assume the structure as drawn. “Also recorded” adds a separate entry of the source. Marks after values point to notes of the source that are not given here.

Experiment [1] concerns Sal-resistant mutants of E. coli D21f2tolC (rpoC / rpoB substitutions). Put plainly: Broth microdilution resistance / cross-resistance levels of spontaneous Sal-resistant mutants. In kind it is cell-based, Escherichia coli. Particulars: for cross-resistance of Sal-resistant mutants (in words): broth microdilution (Table 4); for cross-resistance level (MIC/MICwild-type): values <1 = hypersensitivity. As to the method:
(§1) Isolation of Sal-Resistant Mutants: Spontaneous Sal-Resistant Mutants. E. coli D21f2tolC (6) was cultured to saturation in 5 ml LB broth (7) at 37° C., cultures were centrifuged, and cell pellets (˜3×10^9 cells) were re-suspended in 50 μl LB broth and plated on LB agar (7) containing 1.2 μg/ml Sal (a concentration four times the minimal concentration required to prevent growth of wild-type cells under these conditions), and incubated 24-48 h at 37° C. Sal-resistant mutants were identified by the ability to form colonies on this medium and were confirmed by re-streaking on the same medium.
(§2) Quantitation of Resistance to Sal. Resistance to Sal was quantified by performing broth microdilution assays. Single colonies were inoculated into 3 ml LB broth, and incubated 3-6 h at 37° C. with shaking. Diluted aliquots (2×10^4 cells in 98 μl LB broth; concentrations determined using OD600=1 for 10^9 cells) were dispensed into wells of a 96-well plate, were supplemented with 2 μl of a 2-fold dilution series of Sal in methanol (final concentrations of […], 0.390, 0.195, 0.0975, 0.0488, 0.0244, 0.0122, and 0.00609 μg/ml) or 2 μl of a solvent blank, and were incubated 16 h at 37° C. with shaking. The minimum inhibitory concentration (MIC) was defined as the lowest tested concentration of Sal that inhibited bacterial growth by 95%.
(§3) Quantitation of Cross-Resistance to Rifampin and CBR703. Cross-resistance levels were determined analogously to resistance levels, using 0.12-0.78 μg/ml of rifampin (Sigma, Inc.) and 0.39-25 μg/ml of CBR703 (Maybridge, Inc.).
Background: In broth dilution the organism is exposed to a series of concentrations in liquid medium.

Experiment [2] deals with E. coli D21f2tolC. Nature of the experiment: Spontaneous resistance frequency by plating on LB agar containing inhibitor. Particulars: LB agar, each compound at 4×MIC, colonies counted after 24 h at 37° C. In kind it is cell-based, Escherichia coli.
From the text: Sal-Resistant Mutants Map to RNAP-Subunit Genes. To determine whether Sal kills bacteria by inhibiting RNAP, spontaneous Sal-resistant mutants were isolated, and genes for RNAP subunits in Sal-resistant mutants were PCR-amplified and sequenced (FIG. 3A). Spontaneous Sal-resistant mutants were isolated by plating high-density cultures of E. coli D21f2tolC (˜3×10^9 cells per plate) on agar containing Sal and identifying rare resistant colonies (FIG. 3B). For each Sal-resistant mutant, genomic DNA was prepared, and the genes for the largest RNAP subunit and the second-largest RNAP subunit—rpoC encoding RNAP β′ subunit and rpoB encoding RNAP β subunit were PCR-amplified and sequenced (FIG. 3C).
Co-Administration of Sal and Rifampin Reduces Spontaneous Resistance to Undetectable Levels.
Co-Administration of Sal and CBR703 Reduces Spontaneous Resistance to Undetectable Levels.
as §1

Experiment [3] has as its system E. coli D21f2tolC. Nature of the experiment: Broth microdilution MIC, wild-type rpoC and rpoB. In kind it is cell-based, Escherichia coli. Particulars: LB broth, 16 h at 37° C., lowest concentration inhibiting growth by 95%. As to the method:
as §2, §3

The target of experiment [4] is E. coli RNAP, β′ subunit 782 Gly→Cys (Escherichia coli) (UniProt P0A8T7). Put plainly: cell-based or functional assay.
The target in experiment [5] is E. coli RNAP, β′ subunit 779 Ala→Thr (Escherichia coli) (UniProt P0A8T7). Put plainly: cell-based or functional assay.
Experiment [6] addresses E. coli RNAP, β subunit 526 His→Asp (Escherichia coli) (UniProt P0A8T7). Put plainly: cell-based or functional assay.
The target in experiment [7] is E. coli RNAP, β′ subunit 738 Arg→Ser (Escherichia coli) (UniProt P0A8T7). Put plainly: cell-based or functional assay.
Experiment [8] concerns the target E. coli RNAP, β subunit 680 Leu→Met (Escherichia coli) (UniProt P0A8T7). Nature of the experiment: cell-based or functional assay.
The target of experiment [9] is E. coli RNAP, β′ subunit 780 Arg→Cys (Escherichia coli) (UniProt P0A8T7). Put plainly: cell-based or functional assay.
Experiment [10] addresses E. coli RNAP, β′ subunit 779 Ala→Val (Escherichia coli) (UniProt P0A8T7). Put plainly: cell-based or functional assay.
For experiment [11], the target named is E. coli RNAP, β subunit 569 Ile→Ser (Escherichia coli) (UniProt P0A8T7). Put plainly: cell-based or functional assay.
Experiment [12] deals with E. coli RNAP, β′ subunit 763 Phe→Cys (Escherichia coli) (UniProt P0A8T7). Nature of the experiment: cell-based or functional assay.
The target in experiment [13] is E. coli RNAP, β subunit 675 Asp→Ala (Escherichia coli) (UniProt P0A8T7). Put plainly: cell-based or functional assay.
The target in experiment [14] is Escherichia coli RNA polymerase with wild-type rpoC and wild-type rpoB, in E. coli D21f2tolC (Escherichia coli) (UniProt P0A8T7). Nature of the experiment: cell-based or functional assay.
In experiment [15] the target is E. coli RNAP, β′ subunit 783 Leu→Arg (Escherichia coli) (UniProt P0A8T7). Put plainly: cell-based or functional assay.
In experiment [16] the target is E. coli RNAP, β subunit 677 Asn→Lys (Escherichia coli) (UniProt P0A8T7). Put plainly: cell-based or functional assay.
In experiment [17] the target is E. coli RNAP, β′ subunit 738 Arg→His (Escherichia coli) (UniProt P0A8T7). Put plainly: cell-based or functional assay.
The target in experiment [18] is E. coli RNAP, β subunit 665 Ala→Glu (Escherichia coli) (UniProt P0A8T7). Put plainly: cell-based or functional assay.
In experiment [19] the target is E. coli RNAP, β′ subunit 738 Arg→Cys (Escherichia coli) (UniProt P0A8T7). Nature of the experiment: cell-based or functional assay.
Experiment [20] has as its target E. coli RNAP, β subunit 561 Ile→Ser (Escherichia coli) (UniProt P0A8T7). Nature of the experiment: cell-based or functional assay.
Experiment [21] has as its target E. coli RNAP, β subunit 526 His→Tyr (Escherichia coli) (UniProt P0A8T7). Nature of the experiment: cell-based or functional assay.
Experiment [22] deals with E. coli RNAP, β′ subunit 690 Asn→Asp (Escherichia coli) (UniProt P0A8T7). Put plainly: cell-based or functional assay.
Experiment [23] deals with E. coli RNAP, β′ subunit 758 Pro→Ser (Escherichia coli) (UniProt P0A8T7). Nature of the experiment: cell-based or functional assay.
In experiment [24] the target is E. coli RNAP, β′ subunit 748 Ala→Glu (Escherichia coli) (UniProt P0A8T7). Put plainly: cell-based or functional assay.
Experiment [25] has as its target E. coli RNAP, β′ subunit 738 Arg→Pro (Escherichia coli) (UniProt P0A8T7). Nature of the experiment: cell-based or functional assay.
The target of experiment [26] is E. coli RNAP, β subunit 677 Asn→His (Escherichia coli) (UniProt P0A8T7). Nature of the experiment: cell-based or functional assay.
The target of experiment [27] is E. coli RNAP, β′ subunit 758 Pro→Thr (Escherichia coli) (UniProt P0A8T7). Nature of the experiment: cell-based or functional assay.
In experiment [28] the target is E. coli RNAP, β′ subunit 697 Met→Val (Escherichia coli) (UniProt P0A8T7). Nature of the experiment: cell-based or functional assay.
The target of experiment [29] is E. coli RNAP, β subunit 531 Ser→Leu (Escherichia coli) (UniProt P0A8T7). Put plainly: cell-based or functional assay.
The target in experiment [30] is E. coli RNAP, β′ subunit 775 Ser→Ala (Escherichia coli) (UniProt P0A8T7). Nature of the experiment: cell-based or functional assay.
Experiment [31] deals with E. coli RNAP, β subunit 516 Asp→Val (Escherichia coli) (UniProt P0A8T7). Put plainly: cell-based or functional assay.

As a reminder, the MIC is the lowest concentration that inhibits growth of the organism. High values mean a less susceptible organism, low ones a more susceptible organism. For `CO[C@H]1/C=C/O[C@@]2(C)Oc3c(C)c(O)c4c(O)c(c(/C=N/N5CCN(C)CC5)c(O)c4c3C2=O)NC(=O)/C(C)=C\C=C\[C@H](C)[C@H](O)[C@@H](C)[C@@H](O)[C@@H](C)[C@H](OC(C)=O)[C@@H]1C` [rifampin], the “cross-resistance of Sal-resistant mutants (in words)” value in [1] was “not cross-resistant; also recorded: no cross-resistance”. In addition, the “hypersensitivity of Sal-resistant mutants” value in experiment [1] ({}) is listed as 2 fold. For the same compound, the spontaneous resistance frequency in the experiment with E. coli D21f2tolC [2] is reported as 1×10^−8; in the experiment on E. coli D21f2tolC [2] (listed as Rif) it was 1 × 10^−8. The MIC against E. coli D21f2tolC [3] (Escherichia coli, D21F2TOLC) is 0.098 µg/mL (≈ 0.119 µM).
For the compound `ONC(=Nc1ccccc1)c1cccc(C(F)(F)F)c1` [CBR703], the “cross-resistance level (MIC/MICwild-type)” value in experiment [1] (Sal-resistant mutant rpoB (RNAP β subunit) 569 Ile→Ser) is 1; in [1] (Sal-resistant mutant rpoB (RNAP β subunit) 675 Asp→Ala), “≦0.25”; in [1] (Sal-resistant mutant rpoB (RNAP β subunit) 677 Asn→His), 1; in [1] (Sal-resistant mutant rpoB (RNAP β subunit) 677 Asn→Lys), “≦0.25”; in experiment [1] (Sal-resistant mutant rpoC (RNAP β′ subunit) 690 Asn→Asp) it was “≦0.25^b”; in [1] (Sal-resistant mutant rpoC (RNAP β′ subunit) 697 Met→Val), 0.5. The “cross-resistance level (MIC/MICwild-type)” value in experiment [1] (Sal-resistant mutant rpoC (RNAP β′ subunit) 738 Arg→Cys) was “≦0.25”; in experiment [1] (Sal-resistant mutant rpoC (RNAP β′ subunit) 738 Arg→Pro) it was “≦0.25”; in experiment [1] (Sal-resistant mutant rpoC (RNAP β′ subunit) 738 Arg→Ser), 1; in experiment [1] (Sal-resistant mutant rpoC (RNAP β′ subunit) 748 Ala→Glu), “≦0.25”; in experiment [1] (Sal-resistant mutant rpoC (RNAP β′ subunit) 763 Phe→Cys), “≦0.25”; in experiment [1] (Sal-resistant mutant rpoC (RNAP β′ subunit) 779 Ala→Thr), 1. Besides, the figures for the “cross-resistance level (MIC/MICwild-type)” value in experiment [1] (Sal-resistant mutant rpoC (RNAP β′ subunit) 779 Ala→Val) and in [1] (Sal-resistant mutant rpoC (RNAP β′ subunit) 780 Arg→Cys) were “≦0.25” and 0.5, respectively. For the same compound, the “cross-resistance of Sal-resistant mutants (in words)” value in experiment [1] is on record as “no cross-resistance”. Besides, the spontaneous resistance frequency in the experiment with E. coli D21f2tolC [2] is 2×10^−10. The “MIC with wild-type rpoC and wild-type rpoB” value in the experiment with E. coli D21f2tolC [3] is 6.25 µg/mL.
With salinamide A (peptide), the figures for the resistance level (MIC/MICwild-type), plasmid-borne rpoC (MIC/MICwild-type) in [4], in experiment [9] and in [27] were 8, 8 and 4, respectively. In addition, the resistance level (MIC/MICwild-type) (MIC/MICwild-type) in experiment [5] is > 16; in experiment [7] it was > 16; in experiment [9], > 16; in experiment [10], > 16; in [11], > 16; in [12] it was 16. The resistance level (MIC/MICwild-type) (MIC/MICwild-type) in [13] was > 16; in experiment [15] it was > 16; in experiment [16], > 16; in experiment [17], > 16; in [19] it was > 16; in experiment [22], 16. Also, the resistance level (MIC/MICwild-type) (MIC/MICwild-type) in experiment [23] was 16; in experiment [24], 16; in experiment [25], > 16; in [26], > 16; in experiment [28], > 16; in experiment [30], 8. In addition, the cross-resistance level (MIC/MICwild-type) to Sal (MIC/MICwild-type) in experiment [6], in [21], in [29] and in [31] was 1 in each case. The resistance level (MIC/MICwild-type), plasmid-borne rpoB (MIC/MICwild-type) is 4 in experiment [8], 8 in experiment [18] and 2 in experiment [20]. In experiment [14], this compound showed an MIC (broth microdilution, D21f2tolC pRL663 and D21f2tolC pRL706 derivatives) of 0.098 µg/ml. Moreover, the MIC (broth microdilution, E. coli D21f2tolC) in experiment [14] was 0.024 µg/mL.
